Data as given in IntAct's records for PubMed 21673656.

B1: Flagellar motor switch protein FliM (Escherichia coli (strain K12)), P06974 (parent)
chain: MGDSILSQAEIDALLNGDSEVKDEPTASVSGESDIRPYDPNTQRRVVRERLQALEIINERFARHFRMGLFNLLRRSPDITVGAIRIQPYHEFARNLPVPTNLNLIHLKPLRGTGLVVFSPSLVFIAVDNLFGGDGRFPTKVEGREFTHTEQRVINRMLKLALEGYSDAWKAINPLEVEYVRSEMQVKFTNITTSPNDIVVNTPFHVEIGNLTGEFNICLPFSMIEPLRELLVNPPLENSRNEDQNWRDNLVRQVQHSQLELVANFADISLRLSQILKLNPGDVLPIEKPDRIIAHVDGVPVLTSQYGTLNGQYALRIEHLINPILNSLNEEQPK
partner: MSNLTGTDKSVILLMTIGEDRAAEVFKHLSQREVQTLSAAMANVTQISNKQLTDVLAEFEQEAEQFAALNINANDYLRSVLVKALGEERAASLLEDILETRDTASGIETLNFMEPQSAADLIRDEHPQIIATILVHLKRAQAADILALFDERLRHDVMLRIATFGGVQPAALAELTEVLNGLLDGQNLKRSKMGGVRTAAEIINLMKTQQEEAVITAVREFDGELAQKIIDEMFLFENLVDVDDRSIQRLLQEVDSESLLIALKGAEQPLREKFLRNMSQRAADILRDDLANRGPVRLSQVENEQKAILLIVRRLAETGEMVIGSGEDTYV
B2: Flagellar motor switch protein FliG (Escherichia coli (strain K12)), P0ABZ1 (parent)
chain: B1 partner
partner: B1 chain

Variants of: B1
Details: with flig_ecoli fliG

| effect of a mutation on the interaction | Variant |
| --- | --- |
| decreasing interaction | MGDSILSQAEIDALLNGDSEVKDEPTASVSGESDIRPYDPNTQRRVVRERLQALEIINERFARHFRMGLFNLLRRSPDITVGAIRIQPYHEFARNLPVPTNLNLIHLKPLRGTGLVVFSPSLVFIAVDNLFGGDGRFPTKVEGREFTHTEQRDINRMLKLALEGYSDAWKAINPLEVEYVRSEMQVKFTNITTSPNDIVVNTPFHVEIGNLTGEFNICLPFSMIEPLRELLVNPPLENSRNEDQNWRDNLVRQVQHSQLELVANFADISLRLSQILKLNPGDVLPIEKPDRIIAHVDGVPVLTSQYGTLNGQYALRIEHLINPILNSLNEEQPK [V153D] |

Variants of: B1
Details: with flig_ecoli fliG
Remark: another data set of the same source

| effect of a mutation on the interaction | Variant |
| --- | --- |
| increasing interaction | MGDSILSQAEIDALLNGDSEVKDEPTASVSGESDIRPYDPNTQRRVVRERLQALEIINERFARHFRMGLFNLLRRSPDITVGAIRIQPYHEFARNLPVPTNLNLIHLKPLRGTGLVVFSPSLVFIAVDNLFGGDGRFPTKVEGREFTHTEQRCINRMLKLALEGYSDAWKAINPLEVEYVRSEMQVKFTNITTSPNDIVVNTPFHVEIGNLTGEFNICLPFSMIEPLRELLVNPPLENSRNEDQNWRDNLVRQVQHSQLELVANFADISLRLSQILKLNPGDVLPIEKPDRIIAHVDGVPVLTSQYGTLNGQYALRIEHLINPILNSLNEEQPK [V153C] |

Variants of: B1
Details: with flig_ecoli fliG, P0ABZ1

| effect of a mutation on the interaction | Variant |
| --- | --- |
| increasing interaction | MGDSILSQAEIDALLNGDSEVKDEPTASVSGESDIRPYDPNTQRRVVRERLQALEIINERFARHFRMGLFNLLRRSPDITVGAIRIQPYHEFARNLPVPTNLNLIHLKPLRGTGLVVFSPSLVFIAVDNLFGGDGRFPTKVEGREFTHCEQRVINRMLKLALEGYSDAWKAINPLEVEYVRSEMQVKFTNITTSPNDIVVNTPFHVEIGNLTGEFNICLPFSMIEPLRELLVNPPLENSRNEDQNWRDNLVRQVQHSQLELVANFADISLRLSQILKLNPGDVLPIEKPDRIIAHVDGVPVLTSQYGTLNGQYALRIEHLINPILNSLNEEQPK [T149C] |

Variants of: B1
Details: with flig_ecoli fliG
Remark: another data set of the same source

| effect of a mutation on the interaction | Variant |
| --- | --- |
| decreasing interaction | MGDSILSQAEIDALLNGDSEVKDEPTASVSGESDIRPYDPNTQRRVVRERLQALEIINERFARHFRMGLFNLLRRSPDITVGAIRIQPYHEFARNLPVPTNLNLIHLKPLRGTGLVVFSPSLVFIAVDNLFGGDGRFPTKVEGREFTHDEQRVINRMLKLALEGYSDAWKAINPLEVEYVRSEMQVKFTNITTSPNDIVVNTPFHVEIGNLTGEFNICLPFSMIEPLRELLVNPPLENSRNEDQNWRDNLVRQVQHSQLELVANFADISLRLSQILKLNPGDVLPIEKPDRIIAHVDGVPVLTSQYGTLNGQYALRIEHLINPILNSLNEEQPK [T149D] |

Variants of: B1
Details: with flig_ecoli fliG
Remark: another data set of the same source

| effect of a mutation on the interaction | Variant |
| --- | --- |
| decreasing interaction | MGDSILSQAEIDALLNGDSEVKDEPTASVSGESDIRPYDPNTQRRVVRERLQALEIINERFARHFRMGLFNLLRRSPDITVGAIRIQPYHEFARNLPVPTNLNLIHLKPLRGTGLVVFSPSLVFIAVDNLFGGDGRFPTKVEGREFTHTEQRVINRMLKEALEGYSDAWKAINPLEVEYVRSEMQVKFTNITTSPNDIVVNTPFHVEIGNLTGEFNICLPFSMIEPLRELLVNPPLENSRNEDQNWRDNLVRQVQHSQLELVANFADISLRLSQILKLNPGDVLPIEKPDRIIAHVDGVPVLTSQYGTLNGQYALRIEHLINPILNSLNEEQPK [L160E] |

Variants of: B1
Details: with flig_ecoli fliG
Remark: another data set of the same source

| effect of a mutation on the interaction | Variant |
| --- | --- |
| disrupting interaction | MGDSILSQAEIDALLNGDSEVKDEPTASVSGESDIRPYDPNTQRRVVRERLQALEIINERFARHFRMGLFNLLRRSPDITVGAIRIQPYHEFARNLPVPTNLNLIHLKPLRGTGLVVFSPSLVFIAVDNLFGGDGRFPTKVEGREFTHTEQRVINDMLKLALEGYSDAWKAINPLEVEYVRSEMQVKFTNITTSPNDIVVNTPFHVEIGNLTGEFNICLPFSMIEPLRELLVNPPLENSRNEDQNWRDNLVRQVQHSQLELVANFADISLRLSQILKLNPGDVLPIEKPDRIIAHVDGVPVLTSQYGTLNGQYALRIEHLINPILNSLNEEQPK [R156D] |

Variants of: B1
Details: with flig_ecoli fliG, P0ABZ1
Remark: another data set of the same source

| effect of a mutation on the interaction | Variant |
| --- | --- |
| increasing interaction | MGDSILSQAEIDALLNGDSEVKDEPTASVSGESDIRPYDPNTQRRVVRERLQALEIINERFARHFRMGLFNLLRRSPDITVGAIRIQPYHEFARNLPVPTNLNLIHLKPLRGTGLVVFSPSLVFIAVDNLCGGDGRFPTKVEGREFTHTEQRVINRMLKLALEGYSDAWKAINPLEVEYVRSEMQVKFTNITTSPNDIVVNTPFHVEIGNLTGEFNICLPFSMIEPLRELLVNPPLENSRNEDQNWRDNLVRQVQHSQLELVANFADISLRLSQILKLNPGDVLPIEKPDRIIAHVDGVPVLTSQYGTLNGQYALRIEHLINPILNSLNEEQPK [F131C] |

Variants of: B1
Details: with flig_ecoli fliG
Remark: another data set of the same source

| effect of a mutation on the interaction | Variant |
| --- | --- |
| disrupting interaction | MGDSILSQAEIDALLNGDSEVKDEPTASVSGESDIRPYDPNTQRRVVRERLQALEIINERFARHFRMGLFNLLRRSPDITVGAIRIQPYHEFARNLPVPTNLNLIHLKPLRGTGLVVFSPSLVFIAVDNLDGGDGRFPTKVEGREFTHTEQRVINRMLKLALEGYSDAWKAINPLEVEYVRSEMQVKFTNITTSPNDIVVNTPFHVEIGNLTGEFNICLPFSMIEPLRELLVNPPLENSRNEDQNWRDNLVRQVQHSQLELVANFADISLRLSQILKLNPGDVLPIEKPDRIIAHVDGVPVLTSQYGTLNGQYALRIEHLINPILNSLNEEQPK [F131D] |

Variants of: B1
Details: with flig_ecoli fliG
Remark: another data set of the same source

| effect of a mutation on the interaction | Variant |
| --- | --- |
| disrupting interaction | MGDSILSQAEIDALLNGDSEVKDEPTASVSGESDIRPYDPNTQRRVVRERLQALEIINERFARHFRMGLFNLLRRSPDITVGAIRIQPYHEFARNLPVPTNLNLIHLKPLRGTGLVVFSPSLVFIAVDNLFGWDGRFPTKVEGREFTHTEQRVINRMLKLALEGYSDAWKAINPLEVEYVRSEMQVKFTNITTSPNDIVVNTPFHVEIGNLTGEFNICLPFSMIEPLRELLVNPPLENSRNEDQNWRDNLVRQVQHSQLELVANFADISLRLSQILKLNPGDVLPIEKPDRIIAHVDGVPVLTSQYGTLNGQYALRIEHLINPILNSLNEEQPK [G133W] |

Variants of: B2
Details: with flim_ecoli fliM, P06974

| effect of a mutation on the interaction | Variant |
| --- | --- |
| increasing interaction | MSNLTGTDKSVILLMTIGEDRAAEVFKHLSQREVQTLSAAMANVTQISNKQLTDVLAEFEQEAEQFAALNINANDYLRSVLVKALGEERAASLLEDILETRDTASGIETLNFMEPQSAADLIRDEHPQIIATILVHLKRAQAADILALFDERLRHDVMLRIATFGGVQPAALAELTEVLNGLLDGQNLKRSKMGGVRTAAEIINLCKTQQEEAVITAVREFDGELAQKIIDEMFLFENLVDVDDRSIQRLLQEVDSESLLIALKGAEQPLREKFLRNMSQRAADILRDDLANRGPVRLSQVENEQKAILLIVRRLAETGEMVIGSGEDTYV [M206C] |

Variants of: B2
Details: with flim_ecoli fliM

| effect of a mutation on the interaction | Variant |
| --- | --- |
| disrupting interaction | MSNLTGTDKSVILLMTIGEDRAAEVFKHLSQREVQTLSAAMANVTQISNKQLTDVLAEFEQEAEQFAALNINANDYLRSVLVKALGEERAASLLEDILETRDTASGIETLNFMEPQSAADLIRDEHPQIIATILVHLKRAQAADILALFDERLRHDVMLRIATFGGVQPAALAELTEVLNGLLDGQNLKRSKMGGVRTAAEIINLMKTQQEEAVITAVREFDGEWAQKIIDEMFLFENLVDVDDRSIQRLLQEVDSESLLIALKGAEQPLREKFLRNMSQRAADILRDDLANRGPVRLSQVENEQKAILLIVRRLAETGEMVIGSGEDTYV [L225W] |

Variants of: B2
Details: with flim_ecoli fliM
Remark: another data set of the same source

| effect of a mutation on the interaction | Variant |
| --- | --- |
| increasing interaction | MSNLTGTDKSVILLMTIGEDRAAEVFKHLSQREVQTLSAAMANVTQISNKQLTDVLAEFEQEAEQFAALNINANDYLRSVLVKALGEERAASLLEDILETRDTASGIETLNFMEPQSAADLIRDEHPQIIATILVHLKRAQAADILALFDERLRHDVMLRIATFGGVQPAALAELTEVLNGLLDGQNLKRSKMGGVRTAAEIINLMKTQQEEAVITAVREFDGECAQKIIDEMFLFENLVDVDDRSIQRLLQEVDSESLLIALKGAEQPLREKFLRNMSQRAADILRDDLANRGPVRLSQVENEQKAILLIVRRLAETGEMVIGSGEDTYV [L225C] |

Variants of: B2
Details: with flim_ecoli fliM
Remark: another data set of the same source

| effect of a mutation on the interaction | Variant |
| --- | --- |
| disrupting interaction | MSNLTGTDKSVILLMTIGEDRAAEVFKHLSQREVQTLSAAMANVTQISNKQLTDVLAEFEQEAEQFAALNINANDYLRSVLVKALGEERAASLLEDILETRDTASGIETLNFMEPQSAADLIRDEHPQIIATILVHLKRAQAADILALFDERLRHDVMLRIATFGGVQPAALAELTEVLNGLLDGQNLKRSKMGGVRTAAEWINLMKTQQEEAVITAVREFDGELAQKIIDEMFLFENLVDVDDRSIQRLLQEVDSESLLIALKGAEQPLREKFLRNMSQRAADILRDDLANRGPVRLSQVENEQKAILLIVRRLAETGEMVIGSGEDTYV [I202W] |

Variants of: B2
Details: with flim_ecoli fliM, P06974
Remark: another data set of the same source

| effect of a mutation on the interaction | Variant |
| --- | --- |
| increasing interaction | MSNLTGTDKSVILLMTIGEDRAAEVFKHLSQREVQTLSAAMANVTQISNKQLTDVLAEFEQEAEQFAALNINANDYLRSVLVKALGEERAASLLEDILETRDTASGIETLNFMEPQSAADLIRDEHPQCIATILVHLKRAQAADILALFDERLRHDVMLRIATFGGVQPAALAELTEVLNGLLDGQNLKRSKMGGVRTAAEIINLMKTQQEEAVITAVREFDGELAQKIIDEMFLFENLVDVDDRSIQRLLQEVDSESLLIALKGAEQPLREKFLRNMSQRAADILRDDLANRGPVRLSQVENEQKAILLIVRRLAETGEMVIGSGEDTYV [I129C] |
